Paper PMC6344544, “Illuminating the catalytic core of ectoine synthase through structural and biochemical analysis” (Scientific Reports, 2019)
Each block holds one molecule with its values, some of them ahead of it.

Tests used:
[1] = target: T1, ectoine synthase (Pl)EctC (Paenibacillus lautus, UniProt A0A1R1AV52); experiment: X-ray crystal structure ([…] Å); assay type: binding
T1 construct: full-length (130 amino acids), C-terminal Strep-tag II

[2] = target: Paenibacillus lautus ectoine synthase fused at its C-terminus to a Strep-tag II affinity peptide [(Pl)EctC-Strep-tag II] (Paenibacillus lautus Y4.12MC10); experiment: SEC-MALS; HPLC-MALS; 200 µl of purified (Pl)EctC protein (2 mg ml^-1) loaded onto a Bio SEC-5 HPLC column; measured mass 32.2 kDa against 15.87 kDa calculated for the monomer
purified protein = substrate: CC(=O)NCC[C@H](N)C(=O)O; experiment: purified protein; assay type: binding, Paenibacillus lautus; conditions: Fe2+ active site in the cupin barrel; Trp-21, Arg-25, Asn-38, Thr-40, Tyr-52, Glu-57; acetamide oxygen coordinates the iron

Molecule: CC1=N[C@H](C(=O)O)CCN1 [ectoine, (S)−2-methyl-1,4,5,6-tetrahydropyrimidine-4-carboxylic acid]
- X-ray crystal structure (2.5 Å) [1]: The ectoine molecule is coordinated within the active site of the (Pl)EctC enzyme through five direct interactions

- stoichiometry N [2]: 2
Molecule: Paenibacillus lautus ectoine synthase fused at its C-terminus to a Strep-tag II affinity peptide [(Pl)EctC-Strep-tag II] (enzyme)

B1: ectoine synthase (Pl)EctC (Paenibacillus lautus) (protein)
chain: MIVKHLEEIVDTKDDIDTKTWNSRRLLLTKDGMGFSLNDTLIKAGTETLIWYKNHVEAVYCIEGEGEIEVIGGETYPISPGMMYALDGHEKHYLRARSQMRMVCVFNPPLTGAEVHDEEGTYPLLAPISD
notes: full-length (130 amino acids), C-terminal Strep-tag II
- Km (purified protein): 7.8 mM
